Positions count from the first letter of the chain named. Each block holds one molecule with its values, some of them ahead of it.
Experiments:
[1] = biological target: T1, human IL-17RA on stable IL-17RA 293F cell lines (human) (UniProt Q96F46); test: FACS, 3 µg/mL IL-17A-mFc on stable IL-17RA 293F cells, anti-mouse IgG detection; control group (1% BSA, no IL-17A-mFc) gave 308
T1 sequence (looked up): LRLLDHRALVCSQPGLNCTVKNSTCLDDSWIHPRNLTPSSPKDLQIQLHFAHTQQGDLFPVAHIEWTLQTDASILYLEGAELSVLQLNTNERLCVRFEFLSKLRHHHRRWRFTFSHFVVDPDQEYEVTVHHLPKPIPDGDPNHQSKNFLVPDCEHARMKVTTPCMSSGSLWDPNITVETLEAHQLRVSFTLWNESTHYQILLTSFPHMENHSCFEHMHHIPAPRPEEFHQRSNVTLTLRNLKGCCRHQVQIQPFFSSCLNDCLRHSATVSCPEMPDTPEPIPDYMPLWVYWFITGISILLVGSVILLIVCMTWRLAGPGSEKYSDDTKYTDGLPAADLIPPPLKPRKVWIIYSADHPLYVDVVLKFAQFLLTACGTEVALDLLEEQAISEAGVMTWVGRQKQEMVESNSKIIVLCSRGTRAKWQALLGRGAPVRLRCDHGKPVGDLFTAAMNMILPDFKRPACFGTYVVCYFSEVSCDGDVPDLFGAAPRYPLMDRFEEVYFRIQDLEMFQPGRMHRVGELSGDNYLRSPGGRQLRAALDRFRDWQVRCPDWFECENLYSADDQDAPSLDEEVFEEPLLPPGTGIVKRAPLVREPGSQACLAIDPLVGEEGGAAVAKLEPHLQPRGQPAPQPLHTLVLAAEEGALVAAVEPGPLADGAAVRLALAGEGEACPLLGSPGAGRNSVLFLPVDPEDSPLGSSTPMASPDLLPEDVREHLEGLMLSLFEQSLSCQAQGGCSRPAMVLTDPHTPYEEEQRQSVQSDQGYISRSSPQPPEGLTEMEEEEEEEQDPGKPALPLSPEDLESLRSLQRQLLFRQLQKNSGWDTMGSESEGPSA

[2] = biological target: T2, recombinant human IL-17A-mFc protein (human, UniProt Q16552 24-155, Biotinylated before the blocking assays of Examples 9 and 12 (sites not given); disulfide-linked dimer through IL-17A and the Fc.); test: competitive FACS: blocks binding of biotinylated human IL-17A-mFc (3 µg/mL) to IL-17RA on 293F cells
T2 construct: also called recombinant fusion protein IL-17A-mFc
T2 sequence: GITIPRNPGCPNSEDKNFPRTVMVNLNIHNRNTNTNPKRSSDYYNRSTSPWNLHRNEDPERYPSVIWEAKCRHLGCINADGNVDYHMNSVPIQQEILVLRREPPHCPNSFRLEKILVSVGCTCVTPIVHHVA
Protocol: (§1) The blocking of binding of IL-17A to IL-17RA on cells was detected by a competitive cell-based flow cytometry (FACS) assay. Briefly, chimeric antibody dilutions of different concentrations (3-fold diluted from 10 μg/mL) were mixed with the pre-biotinylated human IL-17A-mFC (3 μg/mL) obtained in Example 1, and incubated at room temperature for 30 minutes. […] After 3 washes with PBS, 5 μg/mL of anti-mouse IgG was added and the system was incubated at room temperature for 30 minutes.

[3] = biological target: T2, recombinant human IL-17A-mFc protein; test: ELISA, human IL-17A-mFc (0.5 µg/mL) coated, biotinylated anti-IgG4 detection
Protocol: (§2) The binding specificity of the chimeric antibodies to human IL-17A was determined by conventional ELISA. Namely, 0.5 μg/mL of human IL-17A-mFc was immobilized on a 96-well plate and incubated for 60-90 minutes at 37° C. The solution in wells was then discarded, and the wells were washed 3 times with washing buffer, and blocked for 60 minutes with PBS containing 2% BSA. The plate was washed 3 times with washing buffer, and added with diluted chimeric antibodies at different concentrations. The antibodies were incubated at 37° C. for 60 minutes. The plate was then washed 3 times with washing buffer, and added with 10000-fold diluted biotinylated anti-IgG4 antibody. The system was incubated at 37° C. for 1 hour, washed three times with washing buffer, added with HRP-Strep 10000-fold diluted with washing buffer, and incubated at room temperature for 1 hour. After 3 washes with washing buffer, 100 μL of TMB substrate was added for color development. The system was incubated at room temperature for 30 minutes, and the reaction was terminated with 100 μL of 2 M hydrochloric acid solution. The absorbance at 450 nm was measured by a plate reader.

[4] = biological target: T2, recombinant human IL-17A-mFc protein; test: competitive FACS: blocks binding of biotinylated human IL-17A-mFc to IL-17RA on 293F cells
Protocol: as §1
The blocking of binding of IL-17A to IL-17RA on cells was detected by a competitive cell-based flow cytometry (FACS) assay. The method and procedures are described in Example 9.

[5] = biological target: T2, recombinant human IL-17A-mFc protein; test: ELISA, human IL-17A-mFc coated (method of Example 8)
Protocol: as §2
The binding specificity of the humanized antibodies to human IL-17A was determined by conventional ELISA. The method and procedures are described in Example 8.

B1: chimeric antibody ch1 (antibody, V domains shown)
VH: QIQLVQSGPELKKPGETVKISCKASGYIFTNYGMNWMKQAPGKGLKWMGWINDHTGEPTYADDFKGRFAFSLETSASTAYLQINNLKKEDTATYFCANYGFGYFDYWGQGTTLTVSS
VL: DVVMTQTPLSLPVSLGDQASISCRSSQSLVHSNGNSYLHWYLQKPGQSPKLLIYKVSNRFSGVPDRFSGSGSGTDFTLKISRVEAEDLGVYFCSQSTHVPYTFGGGTKLEIK
- IC50 [2]: 4.46 µg/mL
- EC50 [3]: 0.00662 µg/mL

B2: chimeric antibody ch4 (antibody, V domains shown)
VH: B1 VH
VL: DVLMTQTPLSLPVSLGDQASISCRSSQSIVHSNGNTYLDWYLQKPGQSPKLLIYKVSNRFSGVPDRFSGSGSGTSFTLKISRVEAEDLGVYYCFQGSHFPTFGGGTKLEIK
- EC50 [3]: 0.0885 µg/mL

B4: humanized antibody hu43 (antibody, human IgG4 S228P, kappa, V domains shown)
VH: QIQLVQSGAEVKKPGASVKISCKASGYIFTNYGMNWMRQAPGQGLEWMGWINDHTGEPTYADKFQGRVTFTLDTSASTAYMELSRLRSDDTAVYYCANYGFGYFDYWGQGTLVTVSS
VL: DVVMTQSPLSLPVTLGQPASISCRSSQSLVHSNGNSYLHWYLQKPGQSPQLLIYKVSNRFSGVPDRFSGSGSGTDFTLKISRVEAEDVGVYYCSQSTHVPYTFGQGTKLEIKR
- IC50 [4]: 0.781 µg/mL
- EC50 [5]: 0.00864 µg/mL

B6: humanized antibody hu31 (antibody, human IgG4 S228P, kappa, V domains shown)
VH: B4 VH with I2V, I20V, A76I
VL: B4 VL
notes: Humanized from ch1
- IC50 [4]: 0.868 µg/mL
- EC50 [5]: 0.00813 µg/mL

B7: chimeric antibody ch7 (antibody, V domains shown)
VH: QVQLKESGPGLVAPSQSLSITCTVSGFSLINYDIHWLRQPPGKGLEWLGVIWAGGRTHSDSALMSRLSISKDNSKSQVFLNVHSLRPEDTAIYYCAREGGDYYKYLDFWGQGTTLTVSS
VL: DVKMTQSPSSMYASLGERVTITCKASHDINSYLSWFQQKPGKSPKTLIYRANGLVDGVPSRFSGSGSGQDYSLTISSLEYEDMGVYYCLQYEMLPLTFGAGTKLELK
- IC50 [2]: 1.22 µg/mL
- EC50 [3]: 0.04 µg/mL

B8: humanized antibody hu59 (antibody, human IgG4 S228P, kappa, V domains shown)
VH: QVQLQESGPGLVKPSETLSLTCTVTGYSISSDYAWSWIRQPPGKGLEWIGFISYSGPTSYNPSLKSRVTISRDTSKNQFSLKLSSVTAADTAVYYCARGGDGDSFDYWGQGTLVTVSS
VL: DVVMTQSPLSLPVTLGQPASISCRSSQSIVHSNGNTYLDWYLQKPGKSPKLLIYKVSNRFSGVPDRFSGSGSGTDFTLKISRVEAEDLGVYYCFQGSHFPTFGQGTKLEIKR
- IC50 [4]: 0.467 µg/mL
- EC50 [5]: 0.0061 µg/mL

B10: humanized antibody hu60 (antibody, human IgG4 S228P, kappa, V domains shown)
VH: B8 VH
VL: B8 VL with K47Q, D75S
- IC50 [4]: 0.483 µg/mL
- EC50 [5]: 0.00578 µg/mL

B11: chimeric antibody ch16 (antibody, V domains shown)
VH: DVQLQESGPGLVKPSQSLSLTCTVTGYSITSDYAWSWIRQFPGNKLEWMAFISYSGPTSYNPSLKSRVSITRDTSKNQFFLQLKSVTTEDTATYYCARGGDGDSFDYWGQGTTLTVSS
VL: B2 VL
- IC50 [2]: 1.45 µg/mL
- EC50 [3]: 0.0154 µg/mL

The next lines start with the values.

- MFI (mean fluorescence intensity) [1]: 7700 MFI
Molecule: recombinant human IL-17A-mFc protein (from UniProt Q16552 24-155) (Fc fusion)

- IC50 [2]: 3.15 µg/mL
- EC50 [3]: 0.00517 µg/mL
B3: chimeric antibody ch2 (antibody, V domains shown)
VH: B1 VH
VL: B1 VL with M4V, S26G, N35H, S36T, L38F, V90I

- IC50 [4]: 0.829 µg/mL
- EC50 [5]: 0.00676 µg/mL
B5: humanized antibody hu44 (antibody, human IgG4 S228P, kappa, V domains shown)
VH: B4 VH
VL: B4 VL with Y92F

- IC50 [4]: 0.578 µg/mL
- EC50 [5]: 0.00635 µg/mL
B9: humanized antibody hu250 (antibody, human IgG4 S228P, kappa, V domains shown)
VH: B8 VH with T25S, S30T, S80F, K82Q, S84K, L113T
VL: B8 VL with S7T, P12S, L15P, R24K, K47Q, L88V, Q104G, L108V

Source: patent US20230159632A1 (SHANGHAI JUNSHI BIOSCIENCES, published 2023)
